# Data published in patent US6602687B1, “DNA encoding human ciliary neurotrophic factor and method for producing the protein encoded thereby” (Regeneron Pharmaceuticals, Inc., priority 1989, dated 2003).
# Values joined by “and” are separate entries in the source; they are usually repeats but may differ in a detail not shown here. Equal entries are not always repeated.
# B1: CNTF: ciliary neurotrophic factor; recombinant rat CNTF in Sections 10, 15, 17, purified rat sciatic nerve CNTF in Section 11; see endpoint conditions (protein, UniProt P20294 1-200, looked up)
# Ciliary neurotrophic factor: MAFAEQTPLTLHRRDLCSRSIWLARKIRSDLTALMESYVKHQGLNKNINLDSVDGVPVASTDRWSEMTEAERLQENLQAYRTFQGMLTKLLEDQRVHFTPTEGDFHQAIHTLMLQVSAFAYQLEELMVLLEQKIPENEADGMPATVGDGGLFEKKLWGLKVLQELSQWTVRSIHDLRVISSHQMGISALESHYGAKDKQM
# Key:
# [1] = system: motorneurons in the facial nerve nuclei; assay: Unilateral facial nerve lesion in newborn rat with gelfoam implant, motorneuron count; format: in vivo
# Protocol: The facial nerves of newborn rat pups were sectioned unilaterally and small gelfoam implants containing either 5 μg bovine serum albumin or 5 μg CNTF were placed at the lesion sites. […] After one week, the animals were sacrificed and sections of their brainstem, containing a facial nerve nucleus on the same side as the lesioned nerve (ipsilateral to the lesion) and a facial nerve nucleus on the side opposite to the lesion (contralateral to the lesion) were produced. The contralateral facial nucleus served as an internal control. Facial nucleus sections were stained with either Nissl stain (to stain motorneurons) or with antibody to glial fibrillary acidic protein (to detect the respose of glial cells to injury).
# [2] = system: E18-19 rat hippocampal neurons; assay: Neurofilament protein in hippocampal cultures; format: cell-based
# Protocol: (§1) Hippocampi were dissected from E18-19 rat embryos of Sprague-Dawley rats, and collected in F10 medium. The tissues were minced, rinsed twice with F10 medium (Gibco) and trypsinized with 0.25% trypsin (Gibco) for 20 minutes at 37° C. Trypsin was inactivated by the addition of a serum-containing medium composed of minimal essential medium (MEM) supplemented with fetal calf serum (FCS, 10%), glutamine (2 mM), penicillin (25 U/ml) and streptomycin (25 ug/ml). Dissociated cells obtained by gentle trituration were collected and centrifuged at low speed (500 rpm) for 30 seconds. The centrifugation was repeated twice, and the cell pellets were then resuspended in serum-containing medium. The cells were then plated onto 6 mm wells or 35 mm dishes that were coated with polyornithine (10 ug/ml) and laminin (10 ug/ml). In most of the experiments, the cells were plated at a low density of approximately 71,000 cells/cm^2. Five to six hours following the plating of cells, medium was changed to a serum-free medium containing 1% N3 and penicillin-streptomycin (25 units/ml and 25 ug/ml, respectively), at which time CNTF was added. Medium was changed every three to four days, with re-addition of the factor.
# Neurofilament protein was quantitated according to the method of Doherty et al. (1984, J. Neurochem. 42:1115-1122), as is described in Section 14.1.3.
# The CNTF used in all assays was recombinant rat CNTF, expressed and purified as described in Example Section 12 supra.
# [3] = system: E18-19 rat hippocampal neurons; assay: Counts of NSE-, GAD-, calbindin- and acetylcholinesterase-positive cells in hippocampal cultures; format: cell-based
# Protocol: as §1
# Cells were fixed with 4% paraformaldehyde for 30 minutes at room temperature, washed with PBS. For GAD staining, cells were permeabilized by sequential rinsing with 50%, 70% and 50% ethanol. The cultures were blocked by sequential rinsing with PBS containing 5% normal rabbit serum for one hour, and incubated with sheep anti-GAD antibody 1440 at a 1:6000 dilution) overnight at 4° C. Following three rinses with PBS, cells were then incubated with biotinylated rabbit anti-sheep antibody at a 1:400 dilution for at least 90 minutes at room temperature. For GABA staining, cells were permeabiized with Triton X-100 (0.25%) in Tris-HCl (0.1M, pH 7.3), and blocked with 10% normal goat serum for 90 minutes, prior to incubation with rabbit anti-GABA antibody (1:5000) ovenight at 4° C. Following three rinses with PBS, cells were then incubated with biotinylated goat anti-rabbit antibody at a 1:200 dilution for at least 90 minutes at room temperature. GAG- or GABA imminoreactive cells were visualized by using the Vectastain ABC kit (Vector Labs).
# Following fixing with 4% paraformaldehyde, cells were blocked with 10% normal goat serum (NGS) in PBS containing 0.1% Triton X-100. The cells were then incubated with the primary antibody (rabbit anti-NSE, 1:5000) overnight at 4° C. The cells were then incubated with the secondary antibody (goat anti-rabit, 1:200 dilution) for at least 90 minutes at room temperature. NSE-immunopositive cells were visualized using the Vectastain ABC kit (Vector Labs).
# Cells were rinsed twice with PBS, and fixed with 4% paraformaldehyde for 30 minutes at room temperature. […]
# hippocampal neurons = assay: Glutamate-induced toxicity in hippocampal cultures (MTT assay); format: cell-based, rat; conditions: in the presence of CNTF (10 ng/ml)
# Protocol: FIG. 38. Protective effect of CNTF on glutamate-induced toxicity in hippocampal cultures. […] Glutamate at various concentations (100-1000 uM) was added for 15 minutes, after which the cells were cultured in the absence of glutamate or CNTF for 20 h. Survival of cells at the end of the culture period was assessed by MTT assay based on the conversion of MTT (3-(4,5-dimethylthiazol-2-yl)-2,5-diphenyl tetrazolium bromide) to a purple product by vital cells. MTT dye was added to a final concentration of 0.5 mg/ml. Dyes taken up by live cells were solubilized by the addition of 0.08N HCI in isopropranol 5 hours later, and O.D. (570-650 nm) was measured.
# The effect of CNTF on GABAergic neurons was dependent on the density at which the cells were plated. […] This may be due to an elevated level of neurotrophic factors in high density cultures. […] We have assessed the neurotoxic effects of various concentrations of glutamate (10-1000 μM) by means of a calorimetric MTT assay, as shown in FIG. 38. At a concentration of 1 mM, glutamate reduced cell survival to approximately 10%. In the presence of CNTF ([…]), cell survival following exposure to glutamate was enhanced.
# [4] = gelfoam implant impregnated with CNTF, one week
# [5] = gelfoam with 5 μg purified rat sciatic nerve CNTF, one week after lesion
# [6] = single animals, gelfoam with 5 μg purified rat sciatic nerve CNTF, one week after lesion
# [7] = recombinant rat CNTF 10 ng/ml, 8 days
molecule,measurement,setting,value
B1,facial nerve motorneurons rescued that would normally have died after axotomy,[1]; CNTF applied to cut stump of newborn rat facial nerve,at least 60%
same,loss of motorneurons ipsilateral to the lesion,[1]; [4],~30%
same,"motorneuron pool ipsilateral to the lesion, of normal",[1]; [4],70%
same,"gliosis in facial nuclei ipsilateral to lesion (anti-GFAP staining), versus BSA treated rats",[1]; gelfoam with 5 μg CNTF,comparable amount of gliosis
same,"Count of motorneurons in the facial nerve nuclei, Contralateral (Control side), group mean (in brackets)",[1]; [5],(3301)
same,"Count of motorneurons in the facial nerve nuclei, Lesion-side, group mean (in brackets)",[1]; [5],(2120)
same,"Count of motorneurons in the facial nerve nuclei, Contralateral (Control side)",[1]; [6],3425 and 2990 and 3490
same,"Count of motorneurons in the facial nerve nuclei, Lesion-side",[1]; [6],2205 and 3445 and 1270 and 3095
same,"effect on neurofilament protein, CNTF added on the third day and cells treated for 8 days",[2]; CNTF 10 ng/ml,much reduced
same,"CNTF-induced increase in neurofilament protein, addition delayed by 3 days","[2]; CNTF 10 ng/ml, measured on the eighth day",similarly diminished
same,maximal increase in neurofilament protein,"[2]; recombinant rat CNTF 10 ng/ml, day 8",approximately 5 fold
same,concentration at which neurofilament protein reaches a plateau,"[2]; recombinant rat CNTF, 8 days",0.1 ng/mL
same,increase in number of GAD-positive neurons,[3]; [7],2.3 fold
same,increase in number of NSE-positive neurons,[3]; [7],2.2 fold
same,increase in calbindin-immunopositive cells,"[3]; recombinant rat CNTF 10 ng/ml, low-density cultures",3 fold
same,increase in number of acetylcholinesterase positive cells versus controls,"[3]; recombinant rat CNTF, after 8 days in culture",approximately 17 fold
same,cell survival following exposure to glutamate,hippocampal neurons,enhanced
